Assay results from paper doi:10.1101/2022.05.24.493251.

T1: Npl3 RRM1 (Saccharomyces cerevisiae, UniProt Q01560 114-201)
T1 sequence: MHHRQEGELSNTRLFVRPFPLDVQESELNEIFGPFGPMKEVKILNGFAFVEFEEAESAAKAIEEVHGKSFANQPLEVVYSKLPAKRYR


These binders were tested against T1, Npl3 RRM1 (assay: NMR titration).

Binder | binding result
CCCCCC (ssDNA) [polyC 6mer] | binds
AAAAAA (ssDNA) [polyA 6mer] | no binding
GGGGGG (ssDNA) [polyG 6mer] | no binding
TTTTTT (ssDNA) [polyT 6mer] | no binding
